Numbering of substitutions follows the chain as printed. Names may count otherwise. Values belong to the binder of their own block, whether it stands above or below them.
Columns and labels:
[1] = target: T1, human Fibroblast Activation Protein (FAP) expressed on cells (human, UniProt Q12884 1-760); assay: flow cytometry, huFAP-transfected HEK cells
T1 construct: Cell-surface human FAP on transfected HEK or NIH/3T3 cells; also called huFAP; human FAP-transfected HEK cells
Description: (§1) The binding of anti-FAP antibodies with a human IgG1 P329G LALA Fc to human FAP was determined by flow cytometry using human FAP-transfected HEK cells. Briefly, the target cells were harvested with Cell Dissociation buffer, washed with FACS Buffer (PBS+2% FCS+5 mM EDTA+0.25% sodium acide) and seeded into 96-U bottom plates (1×10^5 cells/well). Unlabeled primary antibodies were added to the cells (final concentrations 10 μg/ml to 0.64 ng/ml; 1:5 dilutions) and incubated for 30 min at 4° C. After washing, cells were incubated with a PE-conjugated AffiPure F(ab)₂ Fragment Goat anti-human IgG, Fc□ specific (Jackson Immunoresearch) for 30 min at 4° C. in the dark. Afterwards, cells were washed, fixed and measured using a BD FACS LSR Fortessa™.

[2] = target: T2, human CD40 expressed on cells (human, UniProt P25942 21-277); assay: flow cytometry, primary human B cells
T2 construct: also called huCD40; Raji cells
Description: (§2) Plates were centrifuged 5 minutes at 1700 rpm and supernatants were flicked off. […] All samples were resuspended in 50 μL/well of 4° C. cold FACS buffer containing the bispecific antigen binding molecules (primary antibody) or the isotype control antibody DP47 at the indicated range of concentrations (in duplicates) and incubated for 120 minutes at 4° C. Afterwards the cells were washed three times with 200 μL 4° C. cold FACS buffer. […] Data analysis was performed using the FlowJo version 10 software (FlowJo LLC).

[3] = target: T2, human CD40 expressed on cells; assay: cell-based or functional assay
[4] = target: T1, human Fibroblast Activation Protein …; assay: flow cytometry, NIH/3T3-huFAP cells
Description: as §2

[5] = target: T3, His-tagged human FAP ectodomain (human, UniProt Q12884 27-760); assay: SPR, His-tagged human FAP ectodomain as ligand
T3 construct: also called hu FAP ectodomain+poly-lys-tag+his6-tag; His-tagged FAP antigen

[6] = target: T4, biotinylated recombinant human FAP (human, UniProt Q12884 26-760, biotinylated); assay: SPR (Biacore), biotinylated recombinant human FAP
T4 construct: also called biotinylated human FAP

[7] = target: T4, biotinylated recombinant human FAP; assay: SPR (Biacore), biotinylated huFAP on CAPture chip, Fab analyte
Description: As running and dilution buffer, HBS-P+ (10 mM HEPES, 150 mM NaCl pH 7.4, 0.05% Surfactant P20) was used. A dilution series of anti-huFAP Fabs (3.7-300 nM, 1:3 dilution) was successively injected for 120 s each, dissociation was monitored for 1800 s at a flow rate of 30 μl/min (single cycle kinetics). The surface was regenerated by injecting 6 M guanidine-HCl, 0.25 M NaOH for 120 s. Bulk refractive index differences were corrected by subtracting blank injections and by subtracting the response obtained from the control flow cell without captured human FAP. Curve fitting was performed using the 1:1 Langmuir binding model within the Biacore evaluation software.

[8] = target: T5, human DPP-IV expressed on transfected HEK cells (human, UniProt P27487 1-766); assay: flow cytometry, human DPPIV-transfected HEK cells
T5 construct: whole, on cells; also called dipeptidyl peptidase IV
T5 sequence (P27487 whole entry): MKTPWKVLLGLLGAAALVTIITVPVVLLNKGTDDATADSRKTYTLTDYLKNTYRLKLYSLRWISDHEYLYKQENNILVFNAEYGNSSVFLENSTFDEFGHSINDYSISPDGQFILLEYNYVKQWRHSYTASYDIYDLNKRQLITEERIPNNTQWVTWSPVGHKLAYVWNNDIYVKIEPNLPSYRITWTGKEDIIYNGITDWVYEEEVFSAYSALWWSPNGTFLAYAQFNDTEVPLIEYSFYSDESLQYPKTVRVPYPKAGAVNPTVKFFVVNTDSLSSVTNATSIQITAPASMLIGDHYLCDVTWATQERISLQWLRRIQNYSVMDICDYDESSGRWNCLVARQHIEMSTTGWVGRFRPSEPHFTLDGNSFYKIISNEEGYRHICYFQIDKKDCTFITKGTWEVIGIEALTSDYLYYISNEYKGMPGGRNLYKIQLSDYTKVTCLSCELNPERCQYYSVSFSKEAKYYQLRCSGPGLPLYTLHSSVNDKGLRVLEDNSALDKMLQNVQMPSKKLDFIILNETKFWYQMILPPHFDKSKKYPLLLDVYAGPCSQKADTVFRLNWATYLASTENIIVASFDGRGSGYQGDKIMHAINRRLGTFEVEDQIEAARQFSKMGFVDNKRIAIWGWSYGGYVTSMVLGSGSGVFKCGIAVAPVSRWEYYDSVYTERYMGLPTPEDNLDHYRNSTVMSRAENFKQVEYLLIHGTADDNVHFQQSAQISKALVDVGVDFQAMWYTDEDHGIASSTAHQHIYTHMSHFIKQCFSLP
Description: Binding to human FAP and human DPP-IV was determined by flow cytometry using human FAP or human DPPIV-transfected HEK cells. Briefly, the target cells were harvested with Cell Dissociation buffer, washed with FACS Buffer (PBS+2% FCS+5 mM EDTA+0.25% sodium acide) and seeded into 96-U bottom plates (1×10⁵ cells/well). Unlabeled primary antibodies were added to the cells (final concentration 10 μg/ml) and incubated for 30 min at 4° C. After washing, cells were incubated with a goat anti-mouse IgG-PE F(ab′)₂ (Serotec) for 30 min at 4° C. in the dark. Afterwards, cells were washed, fixed and measured using a BD FACS Canto™ II.

[9] = target: T1, human Fibroblast Activation Protein …; assay: flow cytometry, human FAP-transfected HEK cells
Description: as §1

[10] = target: biotinylated recombinant cynomolgus FAP (cynomolgus); assay: SPR (Biacore), biotinylated recombinant cynomolgus FAP
[11] = target: T6, cynomolgus FAP expressed on cells (cynomolgus); assay: flow cytometry, cells expressing cynomolgus FAP
T6 construct: whole, on cells

EC50 [1]: 0.089 µg/mL
B1: anti-FAP antibody 4B9 (antibody, V domains shown)
VH: EVQLLESGGGLVQPGGSLRLSCAASGFTFSSYAMSWVRQAPGKGLEWVSAIIGSGASTYYADSVKGRFTISRDNSKNTLYLQMNSLRAEDTAVYYCAKGWFGGFNYWGQGTLVTVSS
VL: EIVLTQSPGTLSLSPGERATLSCRASQSVTSSYLAWYQQKPGQAPRLLINVGSRRATGIPDRFSGSGSGTDFTLTISRLEPEDFAVYYCQQGIMLPPTFGQGTKVEIK

EC50 [2]: 0.095 nM
EC50, two cell line bridging assay (SEAP of HEK-Blue CD40L reporter cells with FAP-expressing WM-266-4 cells) [3]: 0.0032 nM
EC50 [4]: 5.19 nM
Kd [5]: 0.094 nM
koff [5]: 3.2e-05 s⁻¹
kon [5]: 340000 M⁻¹ s⁻¹
B2: P1AE2423, CD40 (P1AE0817) x FAP (P1AE1689) (2+1) C-terminal crossfab fusion (bispecific antibody, human IgG1, kappa, L234A L235A)
light 1: QVQLVQSGAEVKKPGASVKVSCKASGYTLTDYNMDWVRQAPGQGLEWIGDIYPNTGGTIYNQKFKGRVTMTIDTSTSTVYMELSSLRSEDTAVYYCTRFRGIHYAMDYWGQGTTVTVSSASVAAPSVFIFPPSDEQLKSGTASVVCLLNNFYPREAKVQWKVDNALQSGNSQESVTEQDSKDSTYSLSSTLTLSKADYEKHKVYACEVTHQGLSSPVTKSFNRGEC
light 2: DIVMTQTPLSLSVTPGQPASISCRSSQSLVHSNGNTFLHWYLQKPGQSPQLLIYTVSNRFSGVPDRFSGSGSGTDFTLKISRVEAEDVGVYFCSQTTHVPWTFGGGTKVEIKRTVAAPSVFIFPPSDRKLKSGTASVVCLLNNFYPREAKVQWKVDNALQSGNSQESVTEQDSKDSTYSLSSTLTLSKADYEKHKVYACEVTHQGLSSPVTKSFNRGEC
heavy 1: not shown
heavy 2: QVQLVQSGAEVKKPGASVKVSCKASGYSFTGYYIHWVRQAPGQSLEWMGRVIPNAGGTSYNQKFKGRVTLTVDKSISTAYMELSRLRSDDTAVYYCAREGIYWWGQGTTVTVSSASTKGPSVFPLAPSSKSTSGGTAALGCLVEDYFPEPVTVSWNSGALTSGVHTFPAVLQSSGLYSLSSVVTVPSSSLGTQTYICNVNHKPSNTKVDEKVEPKSCDKTHTCPPCPAPEAAGGPSVFLFPPKPKDTLMISRTPEVTCVVVDVSHEDPEVKFNWYVDGVEVHNAKTKPREEQYNSTYRVVSVLTVLHQDWLNGKEYKCKVSNKALGAPIEKTISKAKGQPREPQVCTLPPSRDELTKNQVSLSCAVKGFYPSDIAVEWESNGQPENNYKTTPPVLDSDGSFFLVSKLTVDKSRWQQGNVFSCSVMHEALHNHYTQKSLSLSPG
notes: bivalent for CD40, monovalent for FAP; also called VL-CH1 fused to Fc

EC50 [2]: 0.086 nM
B3: P1AE2487, CD40 (P1AE0817) x FAP (4B9) (2+1) C-terminal crossfab fusion (bispecific antibody, human IgG1, kappa, L234A L235A)
light 1: EIVLTQSPGTLSLSPGERATLSCRASQSVTSSYLAWYQQKPGQAPRLLINVGSRRATGIPDRFSGSGSGTDFTLTISRLEPEDFAVYYCQQGIMLPPTFGQGTKVEIKSSASTKGPSVFPLAPSSKSTSGGTAALGCLVKDYFPEPVTVSWNSGALTSGVHTFPAVLQSSGLYSLSSVVTVPSSSLGTQTYICNVNHKPSNTKVDKKVEPKSC
light 2: B2 light 2 with R128E, K129Q
heavy 1: not shown
heavy 2: B2 heavy 2 with E144K, E210K
notes: bivalent for CD40, monovalent for FAP; also called CD40 x FAP (4B9) 2+1 crossfab

EC50, two cell line bridging assay (SEAP of HEK-Blue CD40L reporter cells with FAP-expressing WM-266-4 cells) [3]: 0.0025 nM
B4: P1AE2302, CD40 (P1AE0817) x FAP (28H1) (2+1) C-terminal crossfab fusion (bispecific antibody, human IgG1, kappa, L234A L235A)
light 1: EVQLLESGGGLVQPGGSLRLSCAASGFTFSSHAMSWVRQAPGKGLEWVSAIWASGEQYYADSVKGRFTISRDNSKNTLYLQMNSLRAEDTAVYYCAKGWLGNFDYWGQGTLVTVSSASVAAPSVFIFPPSDEQLKSGTASVVCLLNNFYPREAKVQWKVDNALQSGNSQESVTEQDSKDSTYSLSSTLTLSKADYEKHKVYACEVTHQGLSSPVTKSFNRGEC
light 2: B2 light 2
heavy 1: not shown
heavy 2: B2 heavy 2

binding result [8]: no binding (tested: 10 µg/ml)
B6: murine anti-human FAP antibody clone 212 (hybridoma-derived) (antibody, IgG1, V domains shown)
VH: EVLLQQSGPELVKPGASVKIACKASGYTLTDYNMDWVRQSHGKSLEWIGDIYPNTGGTIYNQKFKGKATLTIDKSSSTAYMDLRSLTSEDTAVYYCTRFRGIHYAMDYWGQGTSVTVSS
VL: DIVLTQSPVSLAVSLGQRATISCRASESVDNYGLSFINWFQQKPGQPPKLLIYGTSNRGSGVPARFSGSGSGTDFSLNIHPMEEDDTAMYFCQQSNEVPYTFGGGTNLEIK
notes: mu IgG1

Continued, binder first:

B5: P1AD9438_Fab (clone 212 Fab) (Fab, V domains shown)
VH: B6 VH
VL: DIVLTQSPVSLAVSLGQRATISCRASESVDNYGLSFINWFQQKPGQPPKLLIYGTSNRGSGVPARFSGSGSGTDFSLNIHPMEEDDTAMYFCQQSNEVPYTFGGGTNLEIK
notes: Fab
Kd [6]: 0.12 nM
Kd [7]: < 0.01 nM
koff [7]: < 1e-06 s⁻¹
kon [7]: 1.06e+06 M⁻¹ s⁻¹

B7: P1AD9438, anti-FAP clone 212 as huIgG1 P329G LALA (antibody, V domains shown)
VH: B6 VH
VL: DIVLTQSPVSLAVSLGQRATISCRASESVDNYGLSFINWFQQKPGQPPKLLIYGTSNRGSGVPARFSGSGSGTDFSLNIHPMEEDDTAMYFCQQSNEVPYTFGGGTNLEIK
EC50 [9]: 0.12 µg/mL
EC50 [1]: 0.118 µg/mL
Kd [10]: 0.14 nM
EC50 [11]: 0.3 µg/mL

B8: P1AA9663, CD40 (huCD40) x FAP (28H1) (2+2) C-terminal crossfab fusion (bispecific antibody, human IgG1, kappa, L234A L235A)
light 1: B4 light 1
light 2: DIQMTQSPSSLSASVGDRVTITCRSSQSLVHSNGNTFLHWYQQKPGKAPKLLIYTVSNRFSGVPSRFSGSGSGTDFTLTISSLQPEDFATYFCSQTTHVPWTFGQGTKVEIKRTVAAPSVFIFPPSDRKLKSGTASVVCLLNNFYPREAKVQWKVDNALQSGNSQESVTEQDSKDSTYSLSSTLTLSKADYEKHKVYACEVTHQGLSSPVTKSFNRGEC
heavy: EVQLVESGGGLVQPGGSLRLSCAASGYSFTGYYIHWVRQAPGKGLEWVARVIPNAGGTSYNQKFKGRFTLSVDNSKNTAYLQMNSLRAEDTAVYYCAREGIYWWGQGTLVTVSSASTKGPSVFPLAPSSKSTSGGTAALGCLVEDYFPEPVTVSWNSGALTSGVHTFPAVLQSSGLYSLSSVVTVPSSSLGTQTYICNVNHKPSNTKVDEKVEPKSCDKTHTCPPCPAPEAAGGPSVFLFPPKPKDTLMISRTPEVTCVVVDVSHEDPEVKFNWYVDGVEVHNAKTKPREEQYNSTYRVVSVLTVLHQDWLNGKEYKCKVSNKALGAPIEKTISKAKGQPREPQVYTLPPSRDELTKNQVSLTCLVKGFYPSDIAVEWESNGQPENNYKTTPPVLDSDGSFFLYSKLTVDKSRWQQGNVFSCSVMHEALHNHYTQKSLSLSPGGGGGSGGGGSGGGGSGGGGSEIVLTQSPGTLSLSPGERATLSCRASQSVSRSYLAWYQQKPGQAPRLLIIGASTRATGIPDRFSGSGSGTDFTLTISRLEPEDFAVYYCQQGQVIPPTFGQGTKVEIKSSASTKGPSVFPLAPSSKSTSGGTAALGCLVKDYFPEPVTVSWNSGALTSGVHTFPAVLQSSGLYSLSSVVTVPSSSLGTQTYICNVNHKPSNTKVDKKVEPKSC
EC50, two cell line bridging assay (SEAP of HEK-Blue CD40L reporter cells with FAP-expressing WM-266-4 cells) [3]: 0.0132 nM

Reference: patent US20250320305A1 (Hoffmann-La Roche, published 2025)
